Measured values from patent US20120178116A1, “POLYPEPTIDES FOR IDENTIFYING FUNGICIDALLY ACTIVE COMPOUNDS” (priority 2011, published 2012).

Legend:
[1] = target: complex of SEQ ID NO: 12 and SEQ ID NO: 16 (MBP-AK / MBP-AKA) (Ustilago maydis, UniProt A0A0D1E894); test: IMAP fluorescence polarization assay, inhibitor measurement of aurora kinase activity; type: biochemical, U. maydis
Method: Assay 3: For the commercially available IMAP Assay (Molecular Devices), 2 substrates for human aurora kinases (Kemptide, Cat #R7331, sequence 5TAMRA-LRRASLG-OH and PKAtide, Cat #R7250, Lot #130188, sequence 5FAM-GRTGRRNSI-NH2) may be purchased commercially. The assay was carried out in accordance with the instructions of the manufacturer.
The IMAP fluorescence polarization assay (Molecular Devices) is based on the specific high-affinity interaction between phosphate groups and trivalent metal ions. The kinase reaction phospholrylates a fluorescent substrate which is then specifically bonded by the metal beads present in the stop solution. This interaction increases the fluorescence polarization, which allows kinase activity to be determined. The assay was carried out in accordance with the instructions of the manufacturer as follows:
1 Vol. of inhibitor in 4% DMSO or 4% DMSO
1 Vol. of enzyme solution
Enzyme solution: for example SEQ ID NO: 12 and SEQ ID NO: 16 (1:1) in Complete Reaction Buffer ATP/substrate: 70 μM ATP/200 nM FAM-PKAtide or TAMRA-Kemptide in Complete Reaction Buffer
Fluorescence polarization was measured in a Tecan Ultra microtitre plate fluorimeter using the following measurement parameters:
Unless indicated otherwise, the activity of the AK was determined by the IMAP method as described under General Methods. […]

[2] = system: SEQ ID NO: 16 (MBP-AKA fusion protein; C terminus of aurora kinase activator um03367 of U. maydis with TAG)

Chain of complex of SEQ ID NO: 12 and SEQ ID NO: 16 (MBP-AK / MBP-AKA) (A0A0D1E894 entry or part of it, one chain of several): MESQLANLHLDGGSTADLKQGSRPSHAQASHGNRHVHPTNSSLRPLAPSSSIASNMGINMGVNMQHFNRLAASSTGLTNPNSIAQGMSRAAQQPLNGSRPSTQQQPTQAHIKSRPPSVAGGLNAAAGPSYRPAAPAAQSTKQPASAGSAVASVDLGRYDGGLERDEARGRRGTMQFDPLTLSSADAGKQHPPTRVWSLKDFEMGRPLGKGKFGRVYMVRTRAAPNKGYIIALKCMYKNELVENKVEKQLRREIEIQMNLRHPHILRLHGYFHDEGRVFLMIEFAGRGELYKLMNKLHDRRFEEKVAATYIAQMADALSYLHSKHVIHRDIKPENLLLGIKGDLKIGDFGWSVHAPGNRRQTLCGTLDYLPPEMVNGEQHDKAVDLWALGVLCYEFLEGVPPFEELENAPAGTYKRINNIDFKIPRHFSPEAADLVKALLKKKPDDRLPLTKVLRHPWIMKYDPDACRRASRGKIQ

Molecule | IC50 [1] [nM] | AK activity, radioactive assay (phosphorylation of basic myelin protein) [2] | phosphorylation of basic myelin protein, PKAtide and Kemptide (IMAP fluorescence polarization assays) [2] | phosphorylation of substrates for human aurora kinase A (IMAP assay) [2]
CN[C@@H]1C[C@H]2O[C@@](C)([C@@H]1OC)n1c3ccccc3c3c4c(c5c6ccccc6n2c5c31)C(=O)NC4 [staurosporine] | 2.1 | – | – | –
SEQ ID NO: 12 (MBP-AK fusion protein; aurora kinase um10119 of U. maydis with TAG) | – | SEQ ID NO: 12 in the presence of SEQ ID NO: 16 shows AK activity | The purified complex of MBP-SEQ ID NO: 12 and MBP-SEQ ID NO: 16 was capable of phosphorylating both basic myelin protein and the substrates for human aurora kinases, PKAtide and Kemptide | Both substrates for human aurora kinase A were phosphorylated by SEQ ID NO: 12 in the presence of SEQ ID NO: 16
